# Source: patent publication US20190144507A1 (GlaxoSmithKline, published 2019)
# B1: VZV gL (other)
# chain: LHLQDDTPLFFGAKPLSDVSLIITEPCVSSVYEAWDYAAPPVSNLSEALSGIVVKTKCPVPEVILWFKDKQMAYWTNPYVTLKGLTQSVGEEHKSGDIRDALLDALSGVWVDSTPSSTNIPENGCVWGADRLFQRVCQ
# Biological target: T1, VZV gH (VZV (strain ), UniProt Q775J3 18-841)
# T1 sequence: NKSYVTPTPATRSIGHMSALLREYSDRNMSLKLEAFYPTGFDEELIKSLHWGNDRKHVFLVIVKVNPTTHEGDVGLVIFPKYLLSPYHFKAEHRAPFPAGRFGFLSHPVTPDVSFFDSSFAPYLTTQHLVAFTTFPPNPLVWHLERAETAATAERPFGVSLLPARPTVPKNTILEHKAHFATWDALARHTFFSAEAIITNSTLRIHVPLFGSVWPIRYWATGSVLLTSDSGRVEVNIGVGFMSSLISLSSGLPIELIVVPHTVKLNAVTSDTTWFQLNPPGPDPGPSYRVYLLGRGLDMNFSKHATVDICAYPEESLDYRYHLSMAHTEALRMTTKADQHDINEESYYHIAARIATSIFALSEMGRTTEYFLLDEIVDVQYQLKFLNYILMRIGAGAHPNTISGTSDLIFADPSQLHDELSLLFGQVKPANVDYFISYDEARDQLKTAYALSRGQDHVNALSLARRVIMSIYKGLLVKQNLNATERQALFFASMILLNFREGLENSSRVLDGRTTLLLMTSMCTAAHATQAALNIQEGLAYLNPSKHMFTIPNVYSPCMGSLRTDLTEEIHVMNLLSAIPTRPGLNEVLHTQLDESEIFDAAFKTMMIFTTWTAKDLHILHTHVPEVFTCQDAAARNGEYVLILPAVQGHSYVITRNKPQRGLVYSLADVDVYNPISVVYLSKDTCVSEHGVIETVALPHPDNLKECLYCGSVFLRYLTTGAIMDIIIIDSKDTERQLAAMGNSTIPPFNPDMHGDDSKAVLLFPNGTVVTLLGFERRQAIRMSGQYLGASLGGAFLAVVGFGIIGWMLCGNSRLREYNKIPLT
# Experiment: immunofluorescence with antibody SG3 on transfected BHK-V cells
binder,measurement,value
B1,binding result,binds
